Measurements published in a protein production outcome set (Wang et al. 2014).

Experiment: label from the status in PepcDB records

| Sequence | protein production |
| --- | --- |
| MSNHSSSIPELSDNGIRYYQTYNESLSLWPVRCKSFYISTRFGQTHVIASGPEDAPPLVLLHGALFSSTMWYPNIADWSSKYRTYAVDIIGDKNKSIPENVSGTRTDYANWLLDVFDNLGIEKSHMIGLSLGGLHTMNFLLRMPERVKSAAILSPAETFLPFHHDFYKYALGLTASNGVETFLNWMMNDQNVLHPIFVKQFKAGVMWQDGSRNPNPNADGFPYVFTDEELRSARVPILLLLGEHEVIYDPHSALHRASSFVPDIEAEVIKNAGHVLSMEQPTYVNERVMRFFNA | not failed |
| MEDKAVSPIIATILLIAITVALAATFYTEVTPYFTEAQYYTPQAVTDVMNVSNGSSFSYDIYIQFFPANLTASQVEISLHVGSSYEYINLKMLSPFGKTTLNNGSITISQYPSAGYFTQGLIFVINSTLPLHSIIFVDLKTSSSINTVSI | failed |
| MMSAVPVSLPVKMLVTRHISPDRYGDFLAWMRQGEILAAGFPGFLGSGVLQPPEGGDQYQIVLRFDSEASLARWEQSLPRRMWLERGAALVRASHARRVTGMDSWFGAPAGAPPRWKQAVSIWLVYFPMLLLFSTALDAQLNALPLFWRVLATTLCMTPVLSFLCIPLVTRVLRGWLHPRAVGAAD | failed |
| MNSTIIIVGILALVFIFLVFGVSSKPLRFIGKALFHVTLGVALLFIVNVVGTYFDFHLPINLGTATITSLLGLPGVAALVVIKLYIMPR | failed |
| MEGLESVYAQAMYGMTRESKIMEHQGSDLIWGGNELMARELCSSSSYHHQLINPNLSSCFMSDLGVLGEIQQQQHVGNRASSIDPSSLDCLLSATSNSNNTSTEDDEGISVLFSDCQTLWSFGGVSSAESENREITTETTTTIKPKPLKRNRGGDGGTTETTTTTTKPKSLKRNRGDETGSHFSLVHPQDDSEKGGFKLIYDENQSKSKKPRTEKERGGSSNISFQHSTCLSDNVEPDAEAIAQMKEMIYRAAAFRPVNFGLEIVEKPKRKNVKISTDPQTVAARQRRERISEKIRVLQTLVPGGTKMDTASMLDEAANYLKFLRAQVKALENLRPKLDQTNLSFSSAPTSFPLFHPSFLPLQNPNQIHHPEC | failed |
| MKKVFITTGTEHYLRQLMENYIGENVTLLQNFSQSLLYQESTGEKLFQEGKEYRVLQSSGSLKGFGIVVFEYIQLRDEEIPIFLQMYQHASLHFSETPGLQSTKLTKAMNTNQFLIVSFWDSEVFFQEWKKTPLHKEITSIMKKNNTQVGFSHEDIYHYPEFSHDAK | not failed |
| LDAILIADDEGCYVDVNAAACELFGVSREELLASTIADFAAPEFNFTQAWQQFREQEQMSGEFQLHRPNGTVRATEFAAVANFIPHRHLSIIRDVSDRQQAKANLQNSEQRLQLALSASS | failed |
| MRLVEIGRFGAPYALKGGLRFRGEPVVLHLERVYVEGHGWRAIEDLYRVGEELVVHLAGVTDRTLAEALVGLRVYAEVADLPPLEEGRYYYFALIGLPVYVEGRQVGEVVDILDAGAQDVLIIRGVGERLRDRAERLVPLQAPYVRVEEGSIHVDPIPGLFD | not failed |
| MNINENASQYIPHEAPMVFVDDLIEIFDQGALASLTIRPELLFCTAQGLPSWTSIELMAQTISAYSGRNGRQRGHTPRIGFLLGTRKLNLPVAFFELGSTLIIRIEQQYLHEGLGQFACEIEYQAHKISALLSVYEPTVDQDNKENT | failed |
| TTKKRVFHFGKGKSEGNKTMKELLGGKGANLAEMASIGLSVPPGFTVSTEACQQYQDAGCALPAGLWAEIVDGLQWVEEYMGATLGDPQRPLLLSVRSGAAVSMPGMMDTVLNLGLNDEVAAGLAAKSGERFAYDSFRRFLDMFGNVVMDIPRSLFEEKLEHMKESKGLKNDTDLTASDLKELVGQYKEVYLSAKGEPFPSDPKKQLELAVLAVFNSWESPRAKKYRSINQITGLRGTAVNVQCMVFGNMGNTSGTGVLFTRNPNTGEKKLYGEFLVNAQGEDVVAGIRTPEDLDAMKNLMPQAYDELVENCNILESHYKEMQDIEFTVQENRLWMLQCRTGKRTGKSAVKIAVDMVNEGLVEPRSAIKMVEPGHLDQLLHPQFENPSAYKDQVIATGLPASPGAAVGQVVFTAEDAEAWHSQGKAAILVRAETSPEDVGGMHAAVGILTERGGMTSHAAVVARGWGKCCVSGCSGIRVNDAEKLVTIGGHVLREGEWLSLNGSTGEVILGKQPLSPPALSGDLGTFMAWVDDVRKLKVLANADTPDDALTARNNGAQGIGLCRTEHMFFASDERIKAVRQMIMAPTLELRQQALDRLLPYQRSDFEGIFRAMDGLPVTIRLLDPPLHEFLPEGNIEDIVSELCAETGANQEDALARIEKLSEVNPMLGFRGCRLGISYPELTEMQARAIFEAAIAMTNQGVQVFPEIMVPLVGTPQELGHQVTLIRQVAEKVFANVGKTIGYKVGTMIEIPRAALVADEIAEQAEFFSFGTNDLTQMTFGYSRDDVGKFIPVYLAQGILQHDPFEVLDQRGVGELVKFATERGRKARPNLKVGICGEHGGEPSSVAFFAKAGLDYVSCSPFRVPIARLAAAQVLV | not failed |
| MSAGLVQAAYIVAALFFIMSLAGLSKQESARNGNYYGIAGMAIALIATIFSPDAQGFGWIIIAMAIGGAIGIFYAKKVEMTEMPELVAILHSFVGLAAVLVGYNSYLDAPEAATHAEHVIHLVEVFLGVFIGAVTFTGSIVAFGKLRGVISSSPLNLPHKHKMNLAAIVVSTLLMIYFVKADGSMFALIVMTLIAFAFGYHLVASIGGADMPVVVSMLNSYSGWAAAAAGFMLANDLLIVTGALVGSSGAILSYIMCKAMNRSFISVIAGGFGQEIIISSDEEQGEHRETTAEEVAEMLKNSKSVIITPGYGMAVAQAQYPVHEITDALRSQGIEVRFGIHPVAGRLPGHMNVLLAEAKVPYDIVLEMDEINDDFSETDTVLVIGANDTVNPAALEDPNSPIAGMPVLEVWNAKNVIVFKRSMNTGYAGVQNPLFFKENTSMLFGDAKESVEAIFKAL | not failed |
| MDNALTFVISTLCILALCYRFYGVFFVRKVLRADDSVVTPSHTFEDGKNYVPTKKWVNAGQHFAAIAAAGPLVGPVLAAQFGYLPGFLWLLVGCVVGGAVHDTVVLFASMKHNGKSLSNVAKAELGPVAGWCTGLAMLFIITITMAGLSMVVVHALERNPWGTFAVFMTIPIAIAVGLYERFTGNHKGATWVGIIAIMVAVLAGPYIQGTLLGDWLTLRVDSVALALPIYAFFASALPVWLLLTPRGYLSSFMKIGVFGALVVGVVIINPTIQFPALTDFIHGGGPVLAGPVWPFISITIACGAISGFHAFIGSGTTPKLVDKWSDIRPVAFGAMLAECMVAVLALVAATALHPADYFAINASPAAFASLGMEVVDLPHLSQEIGMDLAGRTGGAVTLAVGMTFIFTKLPWFATLSSYFFQFVIMFEAVFILTAVDSGTRVARYLIQDLGGDLYAPLKRLDWIPGSIGASVAACALWGYLLTSGDINSVWALFGVSNQLMASIGLIIGATIILRVAAKRIYMLTCLIPLAYLFVTVNYAGYWMIANVYLNTQARGYNPINAGISAIMMVLGLIILITAFGKWKTMLALPKSLRSGEVPAPSLP | failed |
| LTRSNISYFSIGSGTPIIFLHGLSLDKQSTCLFFEPLSNVGQYQRIYLDLPGMGNSDPISPSTSDNVLETLIEAIEEIIGARRFILYGHSYGGYLAQAIAFHLKDQTLGVFLTCPVITADHSKRLTGKHINILEEDINPVENKEYFADFLSMNVIINNQAWHDYQNLIIPGLQKEDKTFIDQLQNNYSFTFEEKLKNINYQFPFKIMVGRNDQVVGYQEQLKLINHNENGEIVLLNRTGHNLMIDQREAVGFHFDLFLDELNSN | failed |
| MSLSLLLQQHLSQPWRFLDHTSFGPTFQALQSFAYDDTLCTSIGKSQSPPTLRAWVHHNTVVLGIQDSRLPQIKAGIEALKGFQHDVIVRNSGGLAVVLDSGILNLSLVLKEEKGFSIDDGYELMYELICSMFQDHREQIEAREIVGSYCPGSYDLSIDGKKFAGISQRRIRGGVAVQIYLCVSGSGAERAKMIRTFYDKAVAGQPTKFVYPRIKPETMASLSELLGQPHNVSDVLLKALMTLQQHGASLLTESLSADEWLLYEQHFARISERNEKLLAEEGHHHHHH | not failed |
| MAALRYAGLDDTDSEDELPPGWEERTTKDGWVYYANHTEEKTQWEHPKTGKRKRVAGDLPYGWEQETDENGQVFFVDHINKRTTYLDPRLAFTVDDNPTKPTTRQRYDGSTTAMEILQGRDFTGKVVVVTGANSGIGFETAKSFALHGAHVILACRNMARASEAVSRILEEWQQGAATTVYCAAVPELEGLGGMYFNNCCRCMPSPEAQSEETARTLWALSERLIQERLGSQSG | not failed |
| MGSEDHGAQNPSCKIMTFRPTMEEFKDFNKYVAYIESQGAHRAGLAKIIPPKEWKPRQTYDDIDDVVIPAPIQQVVTGQSGLFTQYNIQKKAMTVGEYRRLANSEKYCTPRHQDFDDLERKYWKNLTFVSPIYGADISGSLYDDDVAQWNIGSLRTILDMVERECGTIIEGVNTPYLYFGMWKTTFAWHTEDMDLYSINYLHFGEPKSWYAIPPEHGKRLERLAIGFFPGSSQGCDAFLRHKMTLISPIILKKYGIPFSRITQEAGEFMITFPYGYHAGFNHGFNCAESTNFATLRWIDYGKVATQCTCRKDMVKISMDVFVRILQPERYELWKQGKDLTVLDHTRPTALTSPELSSWSASRASLKAKLLRRSHRKRSQPKKPKPEDPKFPGEGTAGAALLEEAGGSVKEEAGPEVDPEEEEEEPQPLPHGREAEGAEEDGRGKLRPTKAKSERKKKSFGLLPPQLPPPPAHFPSEEALWLPSPLEPPVLGPGPAAMEESPLPAPLNVVPPEVPSEELEAKPRPIIPMLYVVPRPGKAAFNQEHVSCQQAFEHFAQKGPTWKEPVSPMELTGPEDGAASSGAGRMETKARAGEGQAPSTFSKLKMEIKKSRRHPLGRPPTRSPLSVVKQEASSDEEASPFSGEEDVSDPDALRPLLSLQWKNRAASFQAERKFNAAAARTEPYCAICTLFYPYCQALQTEKEAPIASLGEGCPATLPSKSRQKTRPLIPEMCFTSGGENTEPLPANSYIGDDGTSPLIACGKCCLQVHASCYGIRPELVNEGWTCSRCAAHAWTAECCLCNLRGGALQMTTDRRWIHVICAIAVPEARFLNVIERHPVDISAIPEQRWKLKCVYCRKRMKKVSGACIQCSYEHCSTSFHVTCAHAAGVLMEPDDWPYVVSITCLKHKSGGHAVQLLRAVSLGQVVITKNRNGLYYRCRVIGAASQTCYEVNFDDGSYSDNLYPESITSRDCVQLGPPSEGELVELRWTDGNLYKAKFISSVTSHIYQVEFEDGSQLTVKRGDIFTLEEELPKRVRSRLSLSTGAPQEPAFSGEEAKAAKRPRVGTPLATEDSGRSQDYVAFVESLLQVQGRPGAPF | failed |
| MFLDRERELQFLERRYEMGGPEFIVIYGRRRVGKTALLLEFISRHGGIYLLARETSNLENLKRFSDRLSEYFGDDFLKRNPFQNWDAFLEYLNQKATERLVVVIDEFPYLVKGDRSLPSILQEYWDLKLSNGRIFLIICGSSISMMEKLLGYKSPIYGRRTGQINLKPVDFLHAREFLPGYSLEDFIKAYGILGGSPAHLLEFDDSKTIKENLLEYLRSDSLLYQDAFFVLREELEEPRNYFAIMEAVAAGKTSLGEIMNETGLSRATVAKYLSVLIELDFVKREIPITASRKSRRGRYYIKDNYFAFWFRYIHPNIDFIESERRKELLELIIDDLPNYLGGIFENVAIEFLPLISNKLPFKPLKIGRWWHKNEEIDLVAFNEKEEKAILIEVKWKTLNKIEANKILKDLNRKSKILKMKEWEQYHGIIAKRVKDKEKIKGGLIWDLEDIENLKFSPELEHHHHHH | not failed |
| MRLFSIPPPTLLAGFLAVLIGYASSAAIIWQAAIVAGATTAQISGWMTALGLAMGVSTLTLTLWYRVPVLTAWSTPGAALLVTGLQGLTLNEAIGVFIVTNALIVLCGITGLFARLMRIIPHSLAAAMLAGILLRFGLQAFASLDGQFTLCGSMLLVWLATKAVAPRYAVIAAMIIGIVIVIAQGDVVTTDVVFKPVLPTYITPDFSFAHSLSVALPLFLVTMASQNAPGIAAMKAAGYSAPVSPLIVFTGLLALVFSPFGVYSVGIAAITAAICQSPEAHPDKDQRWLAAAVAGIFYLLAGLFGSAITGMMAALPVSWIQMLAGLALLSTIGGSLYQALHNERERDAAVVAFLVTASGLTLVGIGSAFWGLIAGGVCYVVLNLIADRNRY | failed |
